The values below come from the supplement of paper PMC9112550, “Optimization of the antimicrobial peptide Bac7 by deep mutational scanning” (BMC Biology, 2022).

This data set concerns Escherichia coli TOP10. The experiment in a line: shrunken log2 fold change of peptide-encoding DNA abundance (4.5 h post-induction vs induction); higher = less antimicrobial activity (less host growth inhibition). The following applies: time post-induction: 4.5 h; library: site-saturation at positions 5, 18, 19, 20.
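Note: peptides expressed intracellularly from a pBAD plasmid library in pooled LB shake-flask culture, induced with 0.3% L-arabinose, DNA abundance read by NGS, three biological replicates, DESeq2 with apeglm shrinkage.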

Take RRIRRRPPRLPRPRPRPLAQPRP: the “shrunken log2 fold change” value amounted to 0.498.

For RRIRLRPPRLPRPRPRPRDCPRP, the “shrunken log2 fold change” value was -0.0082. In the case of RRIRPRPPRLPRPRPRPGIVPRP, the “shrunken log2 fold change” value is -0.0451. The same measure for RRIRVRPPRLPRPRPRPYAPPRP: -0.0528; for RRIRKRPPRLPRPRPRPVVKPRP: -0.0849; for RRIRGRPPRLPRPRPRPFKTPRP: -0.341.

As for RRIRARPPRLPRPRPRPVRCPRP, the “shrunken log2 fold change” value amounted to 0.966. The same measure for RRIRTRPPRLPRPRPRPNHIPRP: -0.825; for RRIRARPPRLPRPRPRPMCMPRP: 0.272. The same measure for RRIRARPPRLPRPRPRPMVPPRP: 0.0221; for RRIRYRPPRLPRPRPRPWARPRP: -0.116.

Take RRIRSRPPRLPRPRPRPDPGPRP: the “shrunken log2 fold change” value amounted to 0.246. As for RRIRHRPPRLPRPRPRPHFAPRP, the “shrunken log2 fold change” value is -0.101. The same measure for RRIRHRPPRLPRPRPRPEDTPRP: 0.0437; for RRIRVRPPRLPRPRPRPPIAPRP: 0.322; for RRIRERPPRLPRPRPRPLTCPRP: -0.149.

As for RRIRIRPPRLPRPRPRPSDMPRP, the “shrunken log2 fold change” value is -0.309. With RRIRARPPRLPRPRPRPPAPPRP, the “shrunken log2 fold change” value turned out to be 1.19.

For RRIRFRPPRLPRPRPRPCHLPRP, the “shrunken log2 fold change” value is -0.0779. For RRIRGRPPRLPRPRPRPYIHPRP the value was -0.252. For the sequence RRIRARPPRLPRPRPRPSFHPRP, the “shrunken log2 fold change” value is -0.215. The same measure for RRIRKRPPRLPRPRPRPCSNPRP: -0.0227; for RRIRQRPPRLPRPRPRPNWHPRP: 0.141. On to RRIRTRPPRLPRPRPRPAIFPRP, for which the “shrunken log2 fold change” value was -0.0366. The same measure for RRIRSRPPRLPRPRPRPPHIPRP: -0.0943; for RRIRVRPPRLPRPRPRPENVPRP: -0.0136. In the case of RRIRGRPPRLPRPRPRPLVTPRP, the “shrunken log2 fold change” value was 1.2. The same measure for RRIRMRPPRLPRPRPRPHSDPRP: 2.6; for RRIRDRPPRLPRPRPRPERQPRP: -0.00783. For RRIRYRPPRLPRPRPRPAVHPRP the value was -0.0328; for RRIRGRPPRLPRPRPRPFYTPRP, -0.173; for RRIRWRPPRLPRPRPRPAEIPRP, 0.107. Turning to RRIRYRPPRLPRPRPRPVFLPRP, the “shrunken log2 fold change” value is -0.538.

With RRIRLRPPRLPRPRPRPDERPRP, the “shrunken log2 fold change” value is 0.0169.

RRIRKRPPRLPRPRPRPKHTPRP: the “shrunken log2 fold change” value was 0.281. The same measure for RRIRVRPPRLPRPRPRPPQLPRP: 0.0208. For RRIRCRPPRLPRPRPRPHQRPRP the value was -0.422. In the case of RRIRERPPRLPRPRPRPGQMPRP, the “shrunken log2 fold change” value amounted to 0.0413. The same measure for RRIRWRPPRLPRPRPRPSRYPRP: -0.483.

RRIRIRPPRLPRPRPRPPWQPRP: the “shrunken log2 fold change” value is 1.02. For RRIRQRPPRLPRPRPRPFSDPRP the value was -0.00196.

Take RRIRERPPRLPRPRPRPAWWPRP: the “shrunken log2 fold change” value is 0.00222.

For RRIRYRPPRLPRPRPRPKWMPRP, the “shrunken log2 fold change” value was -0.27. The same measure for RRIRIRPPRLPRPRPRPFKHPRP: -1.2; for RRIRYRPPRLPRPRPRPTVHPRP: -1.3.

Regarding RRIRIRPPRLPRPRPRPKMRPRP, the “shrunken log2 fold change” value amounted to 0.742.

RRIRFRPPRLPRPRPRPMLTPRP: the “shrunken log2 fold change” value is -0.351. The same measure for RRIRYRPPRLPRPRPRPQMTPRP: 0.0454; for RRIRKRPPRLPRPRPRPLPNPRP: -0.0104; for RRIRKRPPRLPRPRPRPISDPRP: -0.0768. In the case of RRIRDRPPRLPRPRPRPANTPRP, the “shrunken log2 fold change” value was -0.0443. The same measure for RRIRTRPPRLPRPRPRPRPGPRP: 0.621; for RRIRWRPPRLPRPRPRPFQFPRP: -0.198; for RRIRCRPPRLPRPRPRPRSEPRP: 0.325. Regarding RRIRWRPPRLPRPRPRPLVCPRP, the “shrunken log2 fold change” value turned out to be 0.476.

As for RRIRMRPPRLPRPRPRPSVLPRP, the “shrunken log2 fold change” value was determined as 0.0464. For RRIRGRPPRLPRPRPRPDNEPRP the value was 1.84; for RRIRHRPPRLPRPRPRPMNLPRP, -0.0351; for RRIRARPPRLPRPRPRPFNEPRP, -0.1. The same measure for RRIRDRPPRLPRPRPRPMWVPRP: 0.179; for RRIRPRPPRLPRPRPRPITTPRP: -0.139. For RRIRARPPRLPRPRPRPQALPRP the value was 0.274. As to RRIRIRPPRLPRPRPRPCRNPRP, the “shrunken log2 fold change” value was -0.604.

For RRIRNRPPRLPRPRPRPYLVPRP, the “shrunken log2 fold change” value was -0.161. The same measure for RRIRARPPRLPRPRPRPHDRPRP: 0.128; for RRIRQRPPRLPRPRPRPCIEPRP: 0.015; for RRIRYRPPRLPRPRPRPKKNPRP: -0.231. Regarding RRIRDRPPRLPRPRPRPSLEPRP, the “shrunken log2 fold change” value stood at 0.245. On to RRIRGRPPRLPRPRPRPCFQPRP, for which the “shrunken log2 fold change” value is 0.106. On to RRIRFRPPRLPRPRPRPKCWPRP, for which the “shrunken log2 fold change” value worked out at 0.267.

With RRIRTRPPRLPRPRPRPGQHPRP, the “shrunken log2 fold change” value is 0.351.

Take RRIRWRPPRLPRPRPRPPTVPRP: the “shrunken log2 fold change” value is 0.144. For RRIRVRPPRLPRPRPRPQKTPRP the value was 0.0603; for RRIRYRPPRLPRPRPRPEDRPRP, 0.119; for RRIRMRPPRLPRPRPRPKAMPRP, 0.705. The same measure for RRIRSRPPRLPRPRPRPQPCPRP: 2.29; for RRIRLRPPRLPRPRPRPQNDPRP: -0.271.

RRIRMRPPRLPRPRPRPLVHPRP: the “shrunken log2 fold change” value was 0.035. For RRIRPRPPRLPRPRPRPKEIPRP the value was -0.0621; for RRIRERPPRLPRPRPRPFQFPRP, -0.062. On to RRIRPRPPRLPRPRPRPNIMPRP, for which the “shrunken log2 fold change” value was -0.694.

Regarding RRIRTRPPRLPRPRPRPAIVPRP, the “shrunken log2 fold change” value was 0.00191.

Turning to RRIRFRPPRLPRPRPRPVFKPRP, the “shrunken log2 fold change” value is -0.57.

On to RRIRERPPRLPRPRPRPFTHPRP, for which the “shrunken log2 fold change” value is -0.0134. The same measure for RRIRGRPPRLPRPRPRPYSNPRP: 0.0659; for RRIRERPPRLPRPRPRPRFYPRP: -0.115.

Turning to RRIRRRPPRLPRPRPRPNEAPRP, the “shrunken log2 fold change” value is 0.271. The same measure for RRIRNRPPRLPRPRPRPVQLPRP: 0.176; for RRIRGRPPRLPRPRPRPMVDPRP: 0.0455. The same measure for RRIRMRPPRLPRPRPRPKLMPRP: 0.718; for RRIRFRPPRLPRPRPRPELVPRP: 0.616; for RRIRWRPPRLPRPRPRPPLEPRP: 0.474. In the case of RRIRPRPPRLPRPRPRPVPHPRP, the “shrunken log2 fold change” value came to 0.0546. Consider RRIRSRPPRLPRPRPRPVARPRP, for which the “shrunken log2 fold change” value came to 0.148. The same measure for RRIRSRPPRLPRPRPRPMWVPRP: -0.0635; for RRIRMRPPRLPRPRPRPFTHPRP: -0.107. The same measure for RRIRDRPPRLPRPRPRPYPYPRP: -0.0176; for RRIRGRPPRLPRPRPRPARQPRP: 0.654; for RRIRYRPPRLPRPRPRPVLIPRP: -0.00211. For RRIRIRPPRLPRPRPRPDCMPRP the value was -0.106.

RRIRMRPPRLPRPRPRPYPLPRP: the “shrunken log2 fold change” value is -0.141.

Consider RRIRARPPRLPRPRPRPLLWPRP, for which the “shrunken log2 fold change” value was 1.94. The same measure for RRIRRRPPRLPRPRPRPKQVPRP: 0.351; for RRIRGRPPRLPRPRPRPSDPPRP: 0.261. The same measure for RRIRIRPPRLPRPRPRPHYNPRP: -1.03.

In the case of RRIRERPPRLPRPRPRPPCIPRP, the “shrunken log2 fold change” value was -0.163. For RRIRSRPPRLPRPRPRPMQRPRP the value was 0.281.

RRIRMRPPRLPRPRPRPSELPRP: the “shrunken log2 fold change” value is 0.12. For the sequence RRIRLRPPRLPRPRPRPQCNPRP, the “shrunken log2 fold change” value is -0.0192. For RRIRWRPPRLPRPRPRPNTEPRP the value was -0.324; for RRIRMRPPRLPRPRPRPKCRPRP, 0.0493; for RRIRGRPPRLPRPRPRPHYLPRP, -0.295. The same measure for RRIRPRPPRLPRPRPRPAKAPRP: -0.0289; for RRIRDRPPRLPRPRPRPELHPRP: 0.319. As to RRIRSRPPRLPRPRPRPSRWPRP, the “shrunken log2 fold change” value is 0.188. The same measure for RRIRIRPPRLPRPRPRPVENPRP: -0.0976. For RRIRGRPPRLPRPRPRPFHSPRP the value was -0.155. For RRIRTRPPRLPRPRPRPVFCPRP the value was -0.139; for RRIRRRPPRLPRPRPRPLSHPRP, 0.0117. RRIRWRPPRLPRPRPRPQVFPRP: the “shrunken log2 fold change” value was -0.0323. For RRIRTRPPRLPRPRPRPSRVPRP the value was 0.526; for RRIRGRPPRLPRPRPRPAPTPRP, 1.2; for RRIRDRPPRLPRPRPRPVGQPRP, 0.435. As for RRIRGRPPRLPRPRPRPDYCPRP, the “shrunken log2 fold change” value stood at 0.0958.

RRIRWRPPRLPRPRPRPTHHPRP: the “shrunken log2 fold change” value was determined as 0.104.
